From patent US20120095193A1 (published 2012)
Each block holds one binder with its values, some of them ahead of it.

Assays:
human ADAMTS5 [1] = biological target: T1, human ADAMTS5 (human, UniProt Q9UNA0 262-622, limits assumed); experiment: ELISA on coated recombinant human ADAMTS5 (0.2 ug/ml), antibody in culture supernatant, anti human kappa peroxidase, OD 490 nm
T1 construct: Octet and ELISA used 'recombinant human ADAMTS5'; also called recombinant human ADAMTS5; ADAMTS5 (R&D Systems 2198-AD)
T1 sequence: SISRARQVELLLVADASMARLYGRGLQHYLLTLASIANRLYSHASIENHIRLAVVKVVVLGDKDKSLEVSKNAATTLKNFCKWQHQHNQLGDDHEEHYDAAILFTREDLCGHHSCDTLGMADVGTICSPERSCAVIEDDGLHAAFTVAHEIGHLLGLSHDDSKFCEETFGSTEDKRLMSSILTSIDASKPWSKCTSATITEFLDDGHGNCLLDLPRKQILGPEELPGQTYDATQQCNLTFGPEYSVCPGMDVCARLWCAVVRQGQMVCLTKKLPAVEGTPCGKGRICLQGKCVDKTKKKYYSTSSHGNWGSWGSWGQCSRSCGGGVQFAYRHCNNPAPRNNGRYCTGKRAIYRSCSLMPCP
Method: A binding ELISA was carried out to test the binding of the expressed antibodies in cell culture supernatant to recombinant ADAMTS5. ELISA plates were coated with recombinant human ADAMTS5 at 0.2 μg/ml and blocked with blocking solution (4% BSA in Tris buffered saline). Various dilutions of the tissue culture supernatants were added and the plate was incubated for 1 hour at room temperature before washing in TBST. Binding was detected by the addition of a peroxidase labelled anti human kappa light chain antibody (Sigma A7164) at a dilution of 1/1000 in blocking solution. The plate was incubated for 1 hour at room temp before washing in TBST. The plate was developed by addition of OPD substrate (Sigma P9187) and colour development stopped by addition of 2M H₂SO₄. Absorbance was measured at 490 nm with a plate reader and the mean absorbance plotted against concentration.

human ADAMTS5 [2] = biological target: T1, human ADAMTS5; experiment: Biacore, mAb from culture supernatant captured on anti-human IgG, ADAMTS5 (R&D 2198-AD) at 64 nM, 1:1 fit
Method: Anti-human IgG (Biacore™, BR-1008-39) was immobilized on a CM5 chip by primary amine coupling. This surface was then used to capture the humanized antibodies, ADAMTS5 (R&D Systems 2198-AD) was then passed over the captured antibody at a single concentration of 64 nM, regeneration was carried out using 100 mM phosphoric acid followed by 3M MgCl₂. The binding curves were double referenced with buffer injection (i.e. 0 nM) and the data was fitted to the T100 analysis software using the 1:1 model. The run was carried out at 25° C., using HBS-EP as the running buffer. All antibodies were captured from tissue culture supernatants unless specified.

human ADAMTS5 [3] = biological target: T1, human ADAMTS5; experiment: Octet QK, antigen down, incl avidity
human ADAMTS5 [4] = biological target: T1, human ADAMTS5; experiment: Biacore, mAb down, no avidity
human ADAMTS5 [5] = biological target: T1, human ADAMTS5; experiment: Biacore, mAb down, no avidity; Biacore, mAb down, no avidity
human ADAMTS5 [6] = biological target: T1, human ADAMTS5; experiment: Biacore T100, CHO-expressed mAb captured on Protein A, ADAMTS5 (R&D 2198-AD) 0.0625-64 nM, 1:1 fit
Method: (§1) Protein A was immobilized on a CM5 biosensor chip by primary amine coupling. This surface was used to capture the Fc disabled anti-ADAMTS5 antibody, 12F4 H4L0 IgG1m(AA) (BPC1661), (CHO and HEK expressed material). Recombinant human ADAMTS5 (R&D Systems 2198-AD) was used as the analyte at 64 nM, 16 nM, 4 nM, 1 nM, 0.25 nM and 0.0625 nM, with a buffer injection (i.e. 0 nM) used to double reference the binding curves. Regeneration of the capture surface (i.e. removal of the captured antibody) was with 50 mM NaOH. The running buffer was HBS-EP and the run was carried out on the Biacore T100 at 25° C. The data was fitted to the 1:1 model inherent to the machines analysis software.

human ADAMTS5 [7] = biological target: T1, human ADAMTS5; experiment: Biacore T100, HEK-expressed mAb captured on Protein A, ADAMTS5 (R&D 2198-AD) 0.0625-64 nM, 1:1 fit
Method: as §1

human ADAMTS5 [8] = biological target: T1, human ADAMTS5; experiment: Octet QK, purified mAb
human ADAMTS5 [9] = biological target: T1, human ADAMTS5; experiment: cell-based or functional assay
Human ADAMTS13 = biological target: T2, Human ADAMTS13 (human, UniProt Q76LX8 75-685, limits assumed); experiment: celTRF and Octet QK cross-reactivity
T2 sequence (looked up): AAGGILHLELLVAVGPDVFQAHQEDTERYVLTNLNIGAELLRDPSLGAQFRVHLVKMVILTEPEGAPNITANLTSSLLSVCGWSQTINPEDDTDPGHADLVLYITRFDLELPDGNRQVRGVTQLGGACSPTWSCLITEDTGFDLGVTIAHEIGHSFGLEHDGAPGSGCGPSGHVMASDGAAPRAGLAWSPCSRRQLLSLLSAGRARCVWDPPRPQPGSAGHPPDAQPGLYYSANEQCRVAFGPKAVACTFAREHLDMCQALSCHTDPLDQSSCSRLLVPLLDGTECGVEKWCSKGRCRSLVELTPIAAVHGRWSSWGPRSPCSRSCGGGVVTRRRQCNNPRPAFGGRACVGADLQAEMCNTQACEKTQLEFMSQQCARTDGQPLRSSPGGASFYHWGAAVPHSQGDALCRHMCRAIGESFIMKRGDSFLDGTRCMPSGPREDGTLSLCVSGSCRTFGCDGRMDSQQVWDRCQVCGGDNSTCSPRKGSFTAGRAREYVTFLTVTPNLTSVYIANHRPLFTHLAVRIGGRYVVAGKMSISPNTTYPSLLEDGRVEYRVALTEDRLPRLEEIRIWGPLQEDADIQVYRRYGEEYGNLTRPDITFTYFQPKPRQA

Human ADAMTS4 = biological target: T3, Human ADAMTS4 (human, UniProt O75173 213-685, limits assumed); experiment: celTRF and Octet QK cross-reactivity
T3 construct: also called aggrecanase-1
T3 sequence: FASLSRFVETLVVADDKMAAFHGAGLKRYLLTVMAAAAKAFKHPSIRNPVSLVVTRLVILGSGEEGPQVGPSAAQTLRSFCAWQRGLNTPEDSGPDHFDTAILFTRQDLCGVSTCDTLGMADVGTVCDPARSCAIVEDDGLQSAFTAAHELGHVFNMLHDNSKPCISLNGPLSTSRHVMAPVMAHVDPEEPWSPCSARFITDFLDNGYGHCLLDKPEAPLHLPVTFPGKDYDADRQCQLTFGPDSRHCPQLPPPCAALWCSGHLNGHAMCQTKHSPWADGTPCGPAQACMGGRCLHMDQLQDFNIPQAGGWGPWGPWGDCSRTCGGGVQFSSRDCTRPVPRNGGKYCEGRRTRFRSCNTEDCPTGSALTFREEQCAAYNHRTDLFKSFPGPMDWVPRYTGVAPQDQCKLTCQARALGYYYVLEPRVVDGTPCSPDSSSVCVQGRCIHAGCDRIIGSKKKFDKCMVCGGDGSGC

Human MMP9 = Human MMP9 (human, UniProt P14780 20-707, limits assumed); experiment: celTRF and Octet QK cross-reactivity
Sequence of Human MMP9 (P14780 20-707 limits assumed): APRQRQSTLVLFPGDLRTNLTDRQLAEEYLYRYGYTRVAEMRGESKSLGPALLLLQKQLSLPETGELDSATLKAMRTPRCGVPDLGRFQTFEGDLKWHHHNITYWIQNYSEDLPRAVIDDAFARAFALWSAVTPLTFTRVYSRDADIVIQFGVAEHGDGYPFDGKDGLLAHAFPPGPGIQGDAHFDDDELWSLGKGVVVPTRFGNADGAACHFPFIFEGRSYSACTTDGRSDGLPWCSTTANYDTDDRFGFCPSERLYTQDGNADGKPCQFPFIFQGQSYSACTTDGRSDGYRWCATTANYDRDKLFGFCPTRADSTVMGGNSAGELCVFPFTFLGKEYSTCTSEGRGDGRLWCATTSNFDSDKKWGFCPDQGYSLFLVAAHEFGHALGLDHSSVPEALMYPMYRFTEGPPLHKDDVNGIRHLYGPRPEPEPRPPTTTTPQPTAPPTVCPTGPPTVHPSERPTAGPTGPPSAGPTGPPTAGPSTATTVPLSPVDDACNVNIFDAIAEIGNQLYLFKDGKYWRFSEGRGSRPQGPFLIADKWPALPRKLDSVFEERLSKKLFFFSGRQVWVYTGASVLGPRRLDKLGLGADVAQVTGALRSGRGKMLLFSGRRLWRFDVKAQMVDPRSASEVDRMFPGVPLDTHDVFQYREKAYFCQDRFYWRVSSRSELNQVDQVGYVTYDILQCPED

Human MMP13 = Human MMP13 (human, UniProt P45452 20-471, limits assumed); experiment: celTRF and Octet QK cross-reactivity
Human MMP1 = biological target: T4, Human MMP1 (human, UniProt P03956 20-469, limits assumed); experiment: celTRF and Octet QK cross-reactivity
T4 sequence (looked up): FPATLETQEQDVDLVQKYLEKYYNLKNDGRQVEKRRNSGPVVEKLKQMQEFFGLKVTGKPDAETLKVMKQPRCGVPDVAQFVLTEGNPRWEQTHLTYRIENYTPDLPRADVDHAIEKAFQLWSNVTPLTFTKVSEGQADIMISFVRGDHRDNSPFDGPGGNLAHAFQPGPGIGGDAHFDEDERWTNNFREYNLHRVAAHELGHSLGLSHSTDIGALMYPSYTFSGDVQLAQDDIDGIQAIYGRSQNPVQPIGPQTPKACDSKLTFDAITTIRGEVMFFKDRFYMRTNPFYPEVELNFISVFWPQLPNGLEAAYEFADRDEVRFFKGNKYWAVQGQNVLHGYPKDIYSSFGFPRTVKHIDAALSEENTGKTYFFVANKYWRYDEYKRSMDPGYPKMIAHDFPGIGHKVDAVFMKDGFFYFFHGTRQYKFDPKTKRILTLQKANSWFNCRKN

Human ADAMTS1 = biological target: T5, Human ADAMTS1 (human, UniProt Q9UHI8 253-967, limits assumed); experiment: celTRF and Octet QK cross-reactivity
T5 sequence (looked up): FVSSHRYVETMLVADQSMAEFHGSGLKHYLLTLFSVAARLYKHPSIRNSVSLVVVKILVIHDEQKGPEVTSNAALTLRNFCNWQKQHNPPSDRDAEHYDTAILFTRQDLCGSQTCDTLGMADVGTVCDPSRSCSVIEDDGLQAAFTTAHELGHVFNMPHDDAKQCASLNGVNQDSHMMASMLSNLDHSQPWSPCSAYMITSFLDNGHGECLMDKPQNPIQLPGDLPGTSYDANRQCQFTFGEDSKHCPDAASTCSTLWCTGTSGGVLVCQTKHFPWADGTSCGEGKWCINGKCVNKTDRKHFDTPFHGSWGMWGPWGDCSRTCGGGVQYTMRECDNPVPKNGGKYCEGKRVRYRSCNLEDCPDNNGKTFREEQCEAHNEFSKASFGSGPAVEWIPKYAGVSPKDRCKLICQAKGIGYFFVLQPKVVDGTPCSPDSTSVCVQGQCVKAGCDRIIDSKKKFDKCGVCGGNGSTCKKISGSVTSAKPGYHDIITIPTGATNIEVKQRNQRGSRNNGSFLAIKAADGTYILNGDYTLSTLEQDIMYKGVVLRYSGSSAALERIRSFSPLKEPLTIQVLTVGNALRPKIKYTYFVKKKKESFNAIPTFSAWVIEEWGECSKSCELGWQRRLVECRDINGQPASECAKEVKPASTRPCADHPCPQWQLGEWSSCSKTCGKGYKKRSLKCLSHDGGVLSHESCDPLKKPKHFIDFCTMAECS

Human MMP3 = Human MMP3 (human, UniProt P08254 18-477, limits assumed); experiment: celTRF and Octet QK cross-reactivity
Sequence of Human MMP3 (P08254 18-477 limits assumed): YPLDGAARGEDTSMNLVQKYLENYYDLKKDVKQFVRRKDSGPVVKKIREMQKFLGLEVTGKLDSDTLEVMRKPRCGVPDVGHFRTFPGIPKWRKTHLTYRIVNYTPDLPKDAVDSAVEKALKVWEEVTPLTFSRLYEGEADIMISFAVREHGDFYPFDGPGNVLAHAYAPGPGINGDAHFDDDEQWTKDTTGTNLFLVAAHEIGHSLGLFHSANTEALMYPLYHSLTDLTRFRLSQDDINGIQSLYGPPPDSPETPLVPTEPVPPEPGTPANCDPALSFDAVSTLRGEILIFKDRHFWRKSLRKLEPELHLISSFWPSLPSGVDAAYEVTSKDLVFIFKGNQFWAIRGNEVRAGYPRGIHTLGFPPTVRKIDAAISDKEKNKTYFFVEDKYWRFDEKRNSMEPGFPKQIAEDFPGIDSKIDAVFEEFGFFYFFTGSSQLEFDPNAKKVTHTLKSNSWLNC

human ADAMTS5 [10] = biological target: T1, human ADAMTS5; experiment: Octet QK, purified murine mAb

B2: BPC1659 (antibody, human IgG1, kappa)
heavy: not shown
light: DIQMTQSPSSLSASVGDRVTITCKASQSVGTTIVWYQQKPGKAPKLLIYSASNRHTGVPSRFSGSGSGTDFTLTISSLQPEDFATYYCQQYTSYPFTFGQGTKLEIKRTVAAPSVFIFPPSDEQLKSGTASVVCLLNNFYPREAKVQWKVDNALQSGNSQESVTEQDSKDSTYSLSSTLTLSKADYEKHKVYACEVTHQGLSSPVTKSFNRGEC
notes: Humanized, human gamma 1 wild type / kappa, with a fully functional Fc; also called 12F4 H4L0; 12F4 H4L0 IgG1 wt
Kd (human ADAMTS5 [2]): 0.0848 nM
koff (human ADAMTS5 [2]): 4.15e-05 s⁻¹
kon (human ADAMTS5 [2]): 489000 M⁻¹ s⁻¹
Kd (human ADAMTS5 [3]): 0.0383 nM
Kd (human ADAMTS5 [4]): 0.085 nM
kon (human ADAMTS5 [5]): 489000 M⁻¹ s⁻¹

B4: 7B4.1E11 (antibody, IgG1, V domains shown)
VH: EVKLEESGGGLVQPGGSMKLSCAASGFTSSDAWMDWVRQSPEKGLEWVAEIRNKANNHARHYAESVKGRFTISRDDSKSSVYLQMNSLRAEDSGIYYCTRTYYYGSSYGYCDVWGTGTTVTVSS
VL: DIQMTQSPASLSASVGETVTITCRTSENIYSYLAWYQQKQGKSPQLLVYNAKTLAEGVPSRFSGSGSGTQFSLKINSLQPEDFGSYSCQHHYGTPWTFGGGTKLEIKR
notes: also called Murine 7B4.1E11
Kd (human ADAMTS5 [3]): 0.28 nM
Kd (human ADAMTS5 [8]): 0.358 nM
Aggrecan Substrate Cleavage Neutralization IC50 (human ADAMTS5 [9]): 0.08 nM
binding result (Human ADAMTS13): no binding
binding result (Human ADAMTS4): no binding
binding result (Human MMP9): no binding
binding result (Human MMP13): no binding
binding result (Human MMP1): no binding
binding result (Human ADAMTS1): no binding
binding result (Human MMP3): no binding
Kd (human ADAMTS5 [4]): 0.483 nM
Kd (human ADAMTS5 [10]): 0.899 nM

The next lines start with the values.

binding result (human ADAMTS5 [1]): no binding (tested: about 2.5 ug/ml)
B1: BPC1655 (antibody, human IgG1, kappa, V domains shown)
VH: EVQLLESGGGLVQPGGSLRLSCAASGFTFSDAWMDWVRQAPGKGLEWVSEIRHKANDHAIFYDESVKGRFTISRDNSKNTLYLQMNSLRAEDTAVYYCAKPFAYWGQGTLVTVSS
VL: DIQMTQSPSSLSASVGDRVTITCKASQSVGTTIVWYQQKPGKAPKLLIYSASNRHTGVPSRFSGSGSGTDFTLTISSLQPEDFATYYCQQYTSYPFTFGQGTKLEIKR
notes: Humanized, human gamma 1 / kappa; also called 12F4 H0L0

Kd (human ADAMTS5 [6]): 0.07 nM
Kd (human ADAMTS5 [7]): 0.074 nM
B3: BPC1661 (antibody, human IgG1, kappa)
heavy: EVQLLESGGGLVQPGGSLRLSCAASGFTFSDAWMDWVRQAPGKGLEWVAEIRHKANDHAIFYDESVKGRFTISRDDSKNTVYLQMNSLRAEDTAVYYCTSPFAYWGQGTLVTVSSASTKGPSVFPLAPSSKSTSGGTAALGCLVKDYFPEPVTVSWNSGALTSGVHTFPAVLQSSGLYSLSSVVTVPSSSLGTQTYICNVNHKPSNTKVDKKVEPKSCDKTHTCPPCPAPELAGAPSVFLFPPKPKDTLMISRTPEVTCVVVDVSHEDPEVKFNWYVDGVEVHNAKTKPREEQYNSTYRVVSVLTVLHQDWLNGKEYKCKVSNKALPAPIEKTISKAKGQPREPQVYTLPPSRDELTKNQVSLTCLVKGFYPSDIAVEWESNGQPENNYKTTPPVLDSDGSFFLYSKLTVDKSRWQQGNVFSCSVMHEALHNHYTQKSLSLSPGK
light: DIQMTQSPSSLSASVGDRVTITCKASQSVGTTIVWYQQKPGKAPKLLIYSASNRHTGVPSRFSGSGSGTDFTLTISSLQPEDFATYYCQQYTSYPFTFGQGTKLEIKRTVAAPSVFIFPPSDEQLKSGTASVVCLLNNFYPREAKVQWKVDNALQSGNSQESVTEQDSKDSTYSLSSTLTLSKADYEKHKVYACEVTHQGLSSPVTKSFNRGEC
notes: HEK- and CHO-expressed material was tested; also called 12F4 H4L0 IgG1m(AA); Fc disabled anti-ADAMTS5 antibody
